Experimental data taken from article PMC6451123, “The G3-U70-independent tRNA recognition by human mitochondrial alanyl-tRNA synthetase” (Nucleic Acids Research, 2019).

Biological target: the molecule itself
Assay: SEC; gel filtration of the purified enzyme; apparent molecular mass from the elution volumes of three standard proteins (apoferritin 443 kDa, yeast alcohol dehydrogenase 150 kDa, bovine serum albumin 66 kDa)

B1: E. coli AlaRS (enzyme, UniProt P00957 1-876, looked up)
chain: MSKSTAEIRQAFLDFFHSKGHQVVASSSLVPHNDPTLLFTNAGMNQFKDVFLGLDKRNYSRATTSQRCVRAGGKHNDLENVGYTARHHTFFEMLGNFSFGDYFKHDAIQFAWELLTSEKWFALPKERLWVTVYESDDEAYEIWEKEVGIPRERIIRIGDNKGAPYASDNFWQMGDTGPCGPCTEIFYDHGDHIWGGPPGSPEEDGDRYIEIWNIVFMQFNRQADGTMEPLPKPSVDTGMGLERIAAVLQHVNSNYDIDLFRTLIQAVAKVTGATDLSNKSLRVIADHIRSCAFLIADGVMPSNENRGYVLRRIIRRAVRHGNMLGAKETFFYKLVGPLIDVMGSAGEDLKRQQAQVEQVLKTEEEQFARTLERGLALLDEELAKLSGDTLDGETAFRLYDTYGFPVDLTADVCRERNIKVDEAGFEAAMEEQRRRAREASGFGADYNAMIRVDSASEFKGYDHLELNGKVTALFVDGKAVDAINAGQEAVVVLDQTPFYAESGGQVGDKGELKGANFSFAVEDTQKYGQAIGHIGKLAAGSLKVGDAVQADVDEARRARIRLNHSATHLMHAALRQVLGTHVSQKGSLVNDKVLRFDFSHNEAMKPEEIRAVEDLVNTQIRRNLPIETNIMDLEAAKAKGAMALFGEKYDERVRVLSMGDFSTELCGGTHASRTGDIGLFRIISESGTAAGVRRIEAVTGEGAIATVHADSDRLSEVAHLLKGDSNNLADKVRSVLERTRQLEKELQQLKEQAAAQESANLSSKAIDVNGVKLLVSELSGVEPKMLRTMVDDLKNQLGSTIIVLATVVEGKVSLIAGVSKDVTDRVKAGELIGMVAQQVGGKGGGRPDMAQAGGTDAAALPAALASVKGWVSAKLQ
notes: Escherichia coli alanyl-tRNA synthetase; calculated molecular mass of 96 kDa; Construct, tags and host are not described; The calculated mass of 96 kDa would fit the whole protein; also called EcAlaRS; source: purified
  binding result: binds
